Measured values from patent US20040009569A1, “Kinase crystal structures and materials and methods for kinase activation” (priority 2001, published 2004).
“Also recorded” adds a separate entry of the source. Read-outs that look alike come from different tables or passages of the source. Square brackets hold non-standard residues; d marks the D form. Peptide text beside a SMILES is read from it. pS = N[C@@H](COP(=O)(O)O)C(=O)O

Key:
[1] = molecular target: T1, pΔPH-PKB-ΔC (PKBβ residues 146 to 460, phosphorylated in vitro on Thr-309) (Homo sapiens, UniProt P31751); assay: Protein kinase B assay with Crosstide as substrate, peptide stimulation of pΔPH-PKB-ΔC; type: biochemical; details: for stimulation of pΔPH-PKB-ΔC activity (in words): PIFtide peptides at 210-250 μM, PKB HM-peptide up to 1.2 mM; for fold lower affinity than PIFtide, from estimated EC50: PKB not phosphorylated on Ser 474
T1 construct: pΔPH-PKB-ΔC (residues 146 to 460, phosphorylated in vitro on Thr-309); 6xHis (N, cleaved yes); made in house; host or cells: Sf9 insect cells / baculovirus (pFastBacHTa)
T1 sequence (P31751 146-460, stated change not applied): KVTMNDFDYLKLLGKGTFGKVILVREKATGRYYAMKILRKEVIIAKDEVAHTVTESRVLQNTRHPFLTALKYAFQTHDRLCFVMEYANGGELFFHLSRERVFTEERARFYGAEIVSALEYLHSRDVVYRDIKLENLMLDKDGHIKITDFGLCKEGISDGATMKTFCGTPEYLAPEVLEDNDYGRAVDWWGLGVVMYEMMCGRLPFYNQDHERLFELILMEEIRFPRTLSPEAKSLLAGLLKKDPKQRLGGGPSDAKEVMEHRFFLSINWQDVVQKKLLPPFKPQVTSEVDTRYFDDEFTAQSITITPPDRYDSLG
Protocol: To test the model that Ser 474 phosphorylation promotes an interaction between the hydrophobic motif and the induced hydrophobic groove of the N-terminal lobe, thereby causing an allosteric activation of the kinase, the ability of peptides modelled on the hydrophobic motif of PKB to activate the enzyme via an intermolecular association with the N-terminal lobe was assessed.
(§1) PKB was assayed essentially as described by Andjelkovic et al. (1999) with 30 μM Crosstide (GRPRTSSAEG) as substrate except the protein kinase A inhibitor peptide was not added to the reactions. For peptide stimulation experiments the various peptides were dissolved in water and added to the kinase assay mix prior to adding the PKB protein. Peptides were synthesized by Franz Fischer at the FMI or purchased from Neosystem, Strasburg, France.
(§2) All experiments were performed in either duplicate or triplicate.

[2] = molecular target: T2, His tagged pΔPH-PKB-ΔC wild type (Homo sapiens, UniProt P31751); assay: PIFtide responsiveness of His tagged wild type pΔPH-PKB-ΔC expressed in HEK cells; type: biochemical; details: incomplete Thr 309 phosphorylation
T2 construct: pΔPH-PKB-ΔC (residues 146 to 460, phosphorylated in vitro on Thr-309); made in house; host or cells: HEK cells (transient expression), purified on Ni-NTA agarose
T2 sequence (P31751 146-460, stated change not applied): as above
Protocol: To test the notion that a hydrophobic groove is induced in PKB to engage the hydrophobic motif, and activate the kinase, a series of His tagged pΔPH-PKB-ΔC hydrophobic groove mutants were prepared and their responsiveness to PIFtide assessed. PKB mutants were transiently expressed in HEK cells, phosphorylated in vitro with PDK1, and purified using Ni-NTA agarose. […] Wild type PKB prepared using this procedure was stimulated ˜5-fold by 130 μM PIFtide (FIG. 6B).
as §1

[3] = molecular target: T3, ΔPH-PKB phosphorylated on both Thr 309 and Ser 474 (Homo sapiens, UniProt P31751); assay: Protein kinase B assay with Crosstide, peptide stimulation of doubly phosphorylated ΔPH-PKB; type: biochemical
T3 construct: Purification of ΔPH-PKBβ-ΔC (Residues 146-460) and ΔPH-PKBβ (Residues 146-481); 6xHis (N, cleaved yes); made in house; host or cells: Sf9 insect cells / baculovirus (pFastBacHTa)
T3 sequence (P31751 146-481, stated change not applied): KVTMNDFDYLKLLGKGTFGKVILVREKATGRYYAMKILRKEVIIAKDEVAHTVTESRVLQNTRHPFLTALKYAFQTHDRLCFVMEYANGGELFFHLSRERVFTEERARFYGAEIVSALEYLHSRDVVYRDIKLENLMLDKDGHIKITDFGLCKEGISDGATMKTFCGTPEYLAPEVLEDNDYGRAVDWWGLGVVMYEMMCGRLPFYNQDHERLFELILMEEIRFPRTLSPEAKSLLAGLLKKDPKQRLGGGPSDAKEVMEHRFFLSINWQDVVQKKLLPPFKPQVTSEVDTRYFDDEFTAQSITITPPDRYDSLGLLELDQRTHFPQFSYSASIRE
Protocol: as §1, §2

[4] = molecular target: ΔPH-PKB (human PKBβ residues 146-481) phosphorylated on Thr 309 (human) (UniProt P31751); assay: cell-based or functional assay
[5] = molecular target: pΔPH-PKBβ-ΔC (human PKBβ residues 146 to 460, phosphorylated in vitro on Thr-309) (human) (UniProt P31751); assay: cell-based or functional assay
Chain of pΔPH-PKBβ-ΔC (human PKBβ residues 146 to 460, phosphorylated in vitro on Thr-309) (human) (P31751 146-460, stated change not applied): as the sequence (P31751 146-460, stated change not applied) above

[6] = molecular target: His tagged pΔPH-PKB-ΔC hydrophobic groove mutant V194A-V198A (human) (UniProt P31751); assay: cell-based or functional assay
Chain of His tagged pΔPH-PKB-ΔC hydrophobic groove mutant V194A-V198A (human) (P31751 146-460 V194A/V198A limits assumed): as the sequence (P31751 146-460, stated change not applied) above, with V49A, V53A counted along it

[7] = molecular target: His tagged pΔPH-PKB-ΔC, wild type, transiently expressed in HEK cells (human) (UniProt P31751); assay: cell-based or functional assay
Chain of His tagged pΔPH-PKB-ΔC, wild type, transiently expressed in HEK cells (human) (P31751 146-460, stated change not applied): as the sequence (P31751 146-460, stated change not applied) above

[8] = molecular target: ΔPH-PKBβ-ΔC (human PKBβ residues 146 to 460, not phosphorylated on Thr-309) (human) (UniProt P31751); assay: isothermal titration calorimetry
Chain of ΔPH-PKBβ-ΔC (human PKBβ residues 146 to 460, not phosphorylated on Thr-309) (human) (P31751 146-460, stated change not applied): as above

[9] = molecular target: T4, pΔPH-PKB-ΔC (Homo sapiens, UniProt P31751); assay: Isothermal titration calorimetry, peptide binding to pΔPH-PKB-ΔC
T4 construct: pΔPH-PKB-ΔC (residues 146 to 460, phosphorylated in vitro on Thr-309); 6xHis (N, cleaved yes); made in house; host or cells: Sf9 insect cells / baculovirus (pFastBacHTa)
T4 sequence (P31751 146-460, stated change not applied): as above
Protocol: (C) Isothermal titration calorimetry measurements of the binding of PIFtide to pΔPH-PKB-ΔC (left) and ΔPH-PKB-ΔC (right). Upper panel, raw data of the titration of PIFtide into pΔPH-PKB-ΔC. Lower panel, integrated heats of injections, corrected for the heat of dilution, with the solid line corresponding to the best fit of the data using the MicroCal software.
Using isothermal titration calorimetry, the affinity between PIFtide and both pΔPH-PKB-ΔC and ΔPH-PKB-ΔC was determined (FIG. 5C). […] The observed large decrease in entropy is […] typical of protein-peptide interactions, for example SH2-domain-phosphotyrosine peptide complexes (Ladbury et al., 1996), and is consistent with an ordering of both the protein, presumably the αB- and αC-helices of the N-lobe, and peptide on complex formation.

[10] = molecular target: pΔPH-PKBβ-ΔC (human PKBβ residues 146 to 460, phosphorylated in vitro on Thr-309) (human) (UniProt P31751); assay: cell-based or functional assay; remark: listed apart in the source
[11] = assuming activation at saturating peptide similar to that induced by PIFtide, read-out: EC50 estimated from FIG. 5A

GLLELDQRTHFPQFSYSASIRE [PKB HM-S]
stimulation of pΔPH-PKB-ΔC activity (in words) ([1]; Crosstide substrate): did not stimulate

CC[C@H](C)[C@H](NC(=O)[C@H](CO)NC(=O)[C@H](C)NC(=O)[C@H](CO)NC(=O)[C@H](Cc1ccc(O)cc1)NC(=O)[C@H](COP(=O)(O)O)NC(=O)[C@H](Cc1ccccc1)NC(=O)[C@H](CCC(N)=O)NC(=O)[C@@H]1CCCN1C(=O)[C@H](Cc1ccccc1)NC(=O)[C@H](Cc1c[nH]cn1)NC(=O)[C@@H](NC(=O)[C@H](CCCNC(=N)N)NC(=O)[C@H](CCC(N)=O)NC(=O)[C@H](CC(=O)O)NC(=O)[C@H](CC(C)C)NC(=O)[C@H](CCC(=O)O)NC(=O)[C@H](CC(C)C)NC(=O)[C@H](CC(C)C)NC(=O)CN)[C@@H](C)O)C(=O)N[C@@H](CCCNC(=N)N)C(=O)N[C@@H](CCC(=O)O)C(=O)O [HM-P, GLLELDQRTHFPQFpSYSASIRB] (H-GLLELDQRTHFPQF[pS]YSASIRE-OH; N-terminus and C-terminus assumed)
activation of wild type PKB by PKB HM-peptide (in words) [2]: did not elicit measurable activation
activation of ΔPH-PKB phosphorylated on both Thr 309 and Ser 474 (in words) [3]: did not further activate
fold lower affinity than PIFtide, from estimated EC50 [1]: ~1000 fold
EC50 [1, 11]: 2300 µM

CC[C@H](C)[C@H](NC(=O)[C@H](CO)NC(=O)[C@H](C)NC(=O)[C@H](CO)NC(=O)[C@H](Cc1ccc(O)cc1)NC(=O)[C@H](CC(=O)O)NC(=O)[C@H](Cc1ccccc1)NC(=O)[C@H](CCC(N)=O)NC(=O)[C@@H]1CCCN1C(=O)[C@H](Cc1ccccc1)NC(=O)[C@H](Cc1c[nH]cn1)NC(=O)[C@@H](NC(=O)[C@H](CCCNC(=N)N)NC(=O)[C@H](CCC(N)=O)NC(=O)[C@H](CC(=O)O)NC(=O)[C@H](CC(C)C)NC(=O)[C@H](CCC(=O)O)NC(=O)[C@H](CC(C)C)NC(=O)[C@H](CC(C)C)NC(=O)CN)[C@@H](C)O)C(=O)N[C@@H](CCCNC(=N)N)C(=O)N[C@@H](CCC(=O)O)C(=O)O [PKB HM-D] (H-GLLELDQRTHFPQFDYSASIRE-OH; N-terminus and C-terminus assumed)
fold lower affinity than PIFtide, from estimated EC50 [1]: ~1000 fold
EC50 [1, 11]: 3600 µM

PIFtide (synthetic peptide encompassing the PRK2 hydrophobic motif)
activation of PKB kinase activity [4]: 5 fold
EC50 of activation of kinase activity [5]: 3 µM
activation of PKB kinase activity [5]: 15 fold
peptide concentration giving maximum and saturable activation [5]: 20 µM
specific activity of pΔPH-PKB-ΔC maximally activated by PIFtide [5]: 350 nmol/min/mg
PIFtide activation relative to wild type (% of wild type) [6]: 25
stimulation of PKB kinase activity by 130 µM PIFtide [7]: 5 fold
TΔS [8]: -9.2 kcal/mol
ΔH [8]: -16 kcal/mol

MFRDFDYIADW [PIFtide1, 11-residue peptide encompassing the six-residue hydrophobic motif of PIFtide]
stimulation of pΔPH-PKB-ΔC activity (in words) ([1]; Crosstide substrate): essentially recapitulates the activation

CC[C@H](C)[C@H](NC(=O)[C@H](Cc1ccc(O)cc1)NC(=O)[C@H](C)NC(=O)[C@H](Cc1ccccc1)NC(=O)[C@H](CC(=O)O)NC(=O)[C@H](CCCNC(=N)N)NC(=O)[C@H](Cc1ccccc1)NC(=O)[C@H](CCSC)NC(=O)[C@H](CCC(=O)O)NC(=O)[C@H](CCC(N)=O)NC(=O)[C@H](CCC(=O)O)NC(=O)[C@H](CCC(=O)O)NC(=O)[C@H](CCC(=O)O)NC(=O)[C@H](CO)NC(=O)[C@H](CC(C)C)NC(=O)[C@@H](NC(=O)[C@H](CCCNC(=N)N)NC(=O)[C@@H]1CCCN1C(=O)[C@H](CCC(=O)O)NC(=O)[C@@H](N)CCCNC(=N)N)[C@@H](C)CC)C(=O)N[C@@H](C)C(=O)N[C@@H](CC(=O)O)C(=O)N[C@@H](Cc1c[nH]c2ccccc12)C(=O)O [PIFtide(D->A)] (H-REPRILSEEEQEMFRDFAYIADW-OH; N-terminus and C-terminus assumed)
fold lower affinity than PIFtide, from EC50 [1]: 10 fold
EC50 ([1]; Crosstide substrate, value of PIFtide(D->A) called estimated, read-out: EC50 for activation of pΔPH-PKB-ΔC): 30 µM
maximal activation of pΔPH-PKB-ΔC compared with wild type PIFtide (in words) ([1]; saturating / high concentrations of the mutant peptide): identical to that of the wild type peptide; also recorded: could activate PKB maximally
fold lower affinity relative to PIFtide, ITC [9]: approximately 25 fold

PKB HM-P (peptide modelled on the phosphorylated hydrophobic motif of PKBβ, residues 460-481)
estimated EC50 of activation of kinase activity [5]: 2300 µM
fold lower affinity than PIFtide, from the estimated EC50 of activation [5]: 1000 fold
stimulation of PKB kinase activity towards Crosstide [5]: 4 fold

GLLELDQRTHFPQFDYSASIRE [PKB HM-D (PKB hydrophobic motif peptide with aspartate at position 474)]
estimated EC50 of activation of kinase activity [10]: 3600 µM
fold lower affinity than PIFtide, from the estimated EC50 of activation [10]: 1000 fold
stimulation of PKB kinase activity towards Crosstide [10]: 3 fold
